Laboratory results published in publication doi:10.1101/2022.02.08.479534, “FoxP3 can fold into two distinct dimerization states with divergent functional implications for T cell homeostasis”.
Positions count from the first letter of the chain named.

Tests used:
[1] = target: T1, FoxP3ΔN (Mus musculus, UniProt Q99JB6 188-423); experiment: EMSA; EMSA: 0.2 uM DNA, 20 mM Tris pH 7.5, 150 mM NaCl, 1.5 mM MgCl2, 2 mM DTT, 30 min at 4 C; anti-HA bead DNA pull-down: 20 min at room temperature; the EMSA IR-FKHM4g length is taken as 31 bp; details: protein: recombinant; tags: His6-NusA cleaved (HRV3C); chain copies: 2; blunt
T1 sequence: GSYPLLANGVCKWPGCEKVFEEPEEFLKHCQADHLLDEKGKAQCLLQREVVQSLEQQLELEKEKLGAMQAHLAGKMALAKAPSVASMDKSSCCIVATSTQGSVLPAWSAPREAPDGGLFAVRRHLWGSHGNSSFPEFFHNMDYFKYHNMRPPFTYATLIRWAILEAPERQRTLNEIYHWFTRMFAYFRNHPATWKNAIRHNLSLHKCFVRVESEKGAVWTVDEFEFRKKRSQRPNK

[2] = target: T2, NusA-FoxP3RBR-forkhead (Mus musculus, UniProt Q99JB6 284-423); experiment: as above; details: protein: recombinant; tags: His6-NusA; blunt
T2 sequence: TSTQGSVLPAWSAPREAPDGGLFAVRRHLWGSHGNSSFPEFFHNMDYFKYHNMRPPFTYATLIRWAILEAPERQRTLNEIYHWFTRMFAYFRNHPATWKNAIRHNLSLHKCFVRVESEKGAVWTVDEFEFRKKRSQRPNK

[3] = target: T3, NusA-FoxP3RBR-forkhead A372S (Mus musculus, UniProt Q99JB6 284-423, A372S); experiment: as above; details: protein: recombinant; tags: His6-NusA; blunt
T3 sequence: T2 sequence with A89S

[4] = target: T4, FoxP3ΔN'' (Mus musculus, UniProt Q99JB6 204-417, C217S;C231S;del277-314); experiment: as above; details: protein: recombinant; tags: His6-NusA cleaved; chain copies: 2; blunt
T4 sequence: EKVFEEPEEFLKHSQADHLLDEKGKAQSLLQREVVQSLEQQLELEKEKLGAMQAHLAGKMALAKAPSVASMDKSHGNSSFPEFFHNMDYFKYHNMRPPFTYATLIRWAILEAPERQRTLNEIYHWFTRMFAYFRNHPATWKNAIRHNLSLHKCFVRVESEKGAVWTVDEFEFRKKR

[5] = target: T5, FoxP3RBR-forkhead (Mus musculus, UniProt Q99JB6 284-423); experiment: as above; details: protein: recombinant; tags: His6-NusA cleaved (HRV3C); blunt
T5 sequence: T2 sequence

[6] = target: T6, NusA-FoxP3RBR-forkhead A372G (Mus musculus, UniProt Q99JB6 284-423, A372G); experiment: as above; details: protein: recombinant; tags: His6-NusA; blunt
T6 sequence: T2 sequence with A89G

[7] = target: T7, FoxP3ΔN' (Mus musculus, UniProt Q99JB6 204-417, C217S;C231S;del277-304); experiment: as above; details: protein: recombinant; tags: His6-NusA cleaved; chain copies: 2; blunt
T7 sequence: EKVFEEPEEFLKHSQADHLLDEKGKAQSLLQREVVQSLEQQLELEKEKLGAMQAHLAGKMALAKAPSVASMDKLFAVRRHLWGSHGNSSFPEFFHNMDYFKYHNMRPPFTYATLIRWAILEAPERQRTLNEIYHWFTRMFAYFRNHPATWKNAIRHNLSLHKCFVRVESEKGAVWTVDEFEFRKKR

[8] = target: T8, FoxP3ZF-CC (Mus musculus, UniProt Q99JB6 188-284); experiment: EMSA; up to 4 uM; barely detectable; EMSA: 0.2 uM DNA, 20 mM Tris pH 7.5, 150 mM NaCl, 1.5 mM MgCl2, 2 mM DTT, 30 min at 4 C; anti-HA bead DNA pull-down: 20 min at room temperature; the EMSA IR-FKHM4g length is taken as 31 bp; details: protein: recombinant; blunt
T8 sequence: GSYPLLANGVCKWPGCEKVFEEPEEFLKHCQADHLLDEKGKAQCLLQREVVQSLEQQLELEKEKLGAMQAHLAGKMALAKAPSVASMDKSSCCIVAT

Measured: binding result

B1: IR-FKHM4g (31bp) (dsDNA)
DNA 1: TTAGGAAAATTTGTTTACTCGAGTAAACAAA
DNA 2: TTTGTTTACTCGAGTAAACAAATTTTCCTAA
no binding: [8]
binds: all other assays above
